Results published in patent publication US20220257825A1.

Biological target: cell adhesion mediating proteins (CAMP), e.g. integrins, on the cells of the pig skin
Experiment: cell-based or functional assay

Average σmax (N), pulling test on pig skin stripes, 35 mg/ml, 30 min incubation: 5.29 N
average maximal adhesion strength compared with C16 (no RGD), pulling test on pig skin: 80%
B1: C16spRGD (eADF4 (C16) genetically fused at the C-terminus to the tag spRGD, …) (protein)
chain: MASMTGGQQMGRGSMGSSAAAAAAAASGPGGYGPENQGPSGPGGYGPGGPGSSAAAAAAAASGPGGYGPENQGPSGPGGYGPGGPGSSAAAAAAAASGPGGYGPENQGPSGPGGYGPGGPGSSAAAAAAAASGPGGYGPENQGPSGPGGYGPGGPGSSAAAAAAAASGPGGYGPENQGPSGPGGYGPGGPGSSAAAAAAAASGPGGYGPENQGPSGPGGYGPGGPGSSAAAAAAAASGPGGYGPENQGPSGPGGYGPGGPGSSAAAAAAAASGPGGYGPENQGPSGPGGYGPGGPGSSAAAAAAAASGPGGYGPENQGPSGPGGYGPGGPGSSAAAAAAAASGPGGYGPENQGPSGPGGYGPGGPGSSAAAAAAAASGPGGYGPENQGPSGPGGYGPGGPGSSAAAAAAAASGPGGYGPENQGPSGPGGYGPGGPGSSAAAAAAAASGPGGYGPENQGPSGPGGYGPGGPGSSAAAAAAAASGPGGYGPENQGPSGPGGYGPGGPGSSAAAAAAAASGPGGYGPENQGPSGPGGYGPGGPGSSAAAAAAAASGPGGYGPENQGPSGPGGYGPGGPGGGSGGRGDSPG
